Test [1] deals with T1, CD27 expressed on the cell surface (HT1080_CD27 cells) (human, UniProt P26842 20-260).
T1 sequence (looked up): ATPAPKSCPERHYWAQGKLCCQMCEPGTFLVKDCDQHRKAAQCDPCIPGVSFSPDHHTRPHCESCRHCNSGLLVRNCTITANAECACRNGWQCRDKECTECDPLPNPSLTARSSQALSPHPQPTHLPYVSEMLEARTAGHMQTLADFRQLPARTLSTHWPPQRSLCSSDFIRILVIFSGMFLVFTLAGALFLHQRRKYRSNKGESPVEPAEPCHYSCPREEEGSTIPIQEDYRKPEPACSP
In words: cell-based or functional assay.

In test [2] the target is T2, CD27 protein (His-tagged, Sino Biological Inc. 10039-H08B1) (human, UniProt P26842 20-192).
T2 construct: bought; coated onto ELISA plates; also called human CD27; recombinant protein; not shown: His tag
T2 sequence (looked up): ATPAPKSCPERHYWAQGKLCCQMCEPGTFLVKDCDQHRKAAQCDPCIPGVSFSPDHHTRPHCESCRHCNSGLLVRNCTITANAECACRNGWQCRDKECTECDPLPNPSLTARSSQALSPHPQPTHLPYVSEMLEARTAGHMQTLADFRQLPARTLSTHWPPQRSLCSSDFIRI
In words: ELISA on coated His-tagged CD27. In general terms: In an ELISA, binding on a coated surface is turned into a signal by an enzyme label.

Test [3] concerns the target T1, CD27 expressed on the cell surface …. In words: cellular binding assay, HT1080_CD27 cells.
Further: test concentration or dose not given here.

B1: P018.S.02.A.F05 (antibody, V domains shown)
VH: QEQLVESGGDLVKPEGSLTLTCTASGFSFSSSYYMSWVRQAPGKGLEWIACIDTVDNYTYYASWAKGRFTISKTSSTTVSLQMTSLTAADTATYFCARERIAYNTDYFNLWGPGTLVTVSS
VL: AQVLTQTPSPVSAAVGGTVTISCQSSQSLYNYNNLAWYQQKPGQPPKLLIYSASNLASGVPSRFGGSGSGTQFTLTISDLQSDDAATYYCQGYYSGAVYTFGGGTEVVVK
notes: V regions on human Ig constant parts; also called AB27_35
Consider B1, for which, in test [1], the “IL-8, cross-linked by F(ab')2 fragment [abs. corr.]” value (from here on “IL-8, cross-linked”) is 1.17 abs. corr and the “IL-8 [abs. corr.]” value is 0.395 abs. corr. Also, the “ELISA [abs. corr.]” value in test [2] amounted to 3.44 abs. corr. In test [3], the “Cellular binding assay [RFU]” value was determined as 307 RFU.

B2: P018.S.04.A.C02 (antibody, V domains shown)
VH: QEQLVESGGDLVKPEGSLTLTCTASGFSFSSSYYMSWVRQAPGKGLEWIACIDTVDNYTYYASWAKGRFTISKTSSTTVSLQMTSLTAADTATYFCARERIAYNTDYFNLWGPGTLVTVSS
VL: AQVLTQTPSPVSAAVGGTVTISCQSSQSLYNYNNLAWYQQKPGQPPKLLIYSVSNLASGVPSRFGGGGSGTQFTLTISDLQSADAATYYCQGYYSGAVYTFGGGTEVVVK
notes: V regions on human Ig constant parts; also called AB27_69
With B2, in test [1], the “IL-8, cross-linked” value stood at 1.53 abs. corr and the “IL-8 [abs. corr.]” value worked out at 0.235 abs. corr. Besides, the “ELISA [abs. corr.]” value in test [2] is 3.37 abs. corr. In addition, the “Cellular binding assay [RFU]” value in test [3] came out at 415 RFU.

B3: P018.S.04.A.B01 (antibody, V domains shown)
VH: QEQLVESGGDLVKPGGTLTLTCTASGFSFSSSYYMSWVRQAPGKGLEWIACIDTADAYTYYASWAKGRFTISKTSSTTVSLQMTSLTAADTATYFCARERIAYNTDYFNLWGPGTLVTVSS
VL: AQVLTQTPSPVSAAVGGTVTISCQSSQSLYNYNNLAWYQQKPGQPPKLLIYSASNLASGVPSRFGGSGSGTQFTLTISDLQSDDAATYYCQGYYSGAVYTFGGGTEVVVK
notes: V regions on human Ig constant parts; also called AB27_66
As to B3, in test [1], the “IL-8, cross-linked” value is 1.67 abs. corr and the “IL-8 [abs. corr.]” value was 0.508 abs. corr. Also, the “ELISA [abs. corr.]” value in test [2] amounted to 3.38 abs. corr. The “Cellular binding assay [RFU]” value in test [3] is 330 RFU.

B4: P018.S.02.A.B05 (antibody, V domains shown)
VH: QEQLVESGGGLVQPEGSLTLTCKASGFDFSSSYYMSWVRQAPGKGLEWIACIDTADGYTYYASWAKGRFTISKTSSTTVSLQMTSLTAADTATYFCARERIAYNTDYFNLWGPGTLVTVSS
VL: AQVLTQTPSPVSAAVGGTVTISCQSSQSLYNYNNLAWYQQKPGQPPKLLIYSVSNLASGVPSRFGGSGSGTQFTLTISDLQSDDAATYYCQGYYSGAVYTFGGGTEVVVK
notes: V regions on human Ig constant parts; also called AB27_31
For the molecule B4, in test [1], the “IL-8, cross-linked” value amounted to 1.76 abs. corr and the “IL-8 [abs. corr.]” value amounted to 0.201 abs. corr. In addition, the “ELISA [abs. corr.]” value in test [2] came out at 3.48 abs. corr. For the same molecule, the “Cellular binding assay [RFU]” value in test [3] stood at 374 RFU.

B5: P018.S.02.A.H05 (antibody, V domains shown)
VH: QSLEESGGDLVKPGASLTLTCTASGIDFSSSSMCWVRQAPGKGLEWIACIDTGSSGRTDYASWAKGRFTLSKTSATTVTLQMTSLTAADTATYFCTRYGDYAGYGYDSFDPWGPGTLVTVSS
VL: AQVLTQTPSSVSAAVGGTVTINCQASQNINNWCSWYQQKPGQPPKLLIAYASTLASGVSSRFKGSGSGTQFTLTISGVQSDDAATYYCQQTFDCTDVENVFGGGTEVVVK
notes: V regions on human Ig constant parts; also called AB27_40
As to B5, in test [1], the “IL-8, cross-linked” value was 1.4 abs. corr and the “IL-8 [abs. corr.]” value came to 0.067 abs. corr. In addition, in test [2], the “ELISA [abs. corr.]” value was 3.38 abs. corr. Further, the “Cellular binding assay [RFU]” value in test [3] was determined as 252 RFU.

B6: P018.S.07.A.H04 (antibody, V domains shown)
VH: QSLEESGGRLVTPGTPLTLTCTVSGLSLSSYDMSWVRQAPGKGLEWIGYIWSGGSTDYASWAKGRFTISKTSTTVDLKIISPTTEDTATYFCARGYVEFDLWGPGTLVTVSS
VL: DPVLTQTPPSVSAAVGGTVTINCQSSQSLYSNNYLSWYQQKAGQPPKVLIWPASSLASGVPSRFKGSASGTQFTLTISELQSDDAATYYCQGTFYDSGWLSAFGGGTEVVVK
notes: V regions on human Ig constant parts; also called AB27_132
Turning to B6, in test [1], the “IL-8, cross-linked” value came out at 1.86 abs. corr and the “IL-8 [abs. corr.]” value was 0.158 abs. corr. Also, the “ELISA [abs. corr.]” value in test [2] was found to be 3.4 abs. corr. Also, the “Cellular binding assay [RFU]” value in test [3] stood at 386 RFU.

B7: P018.S.03.A.D02 (antibody, V domains shown)
VH: QSVEESGGRLVTPGTPLTLTCTVSGLSLSSYDMSWVRQAPGKGLEWIGYIWSGGTTDYASWAKGRFTISKTSTTVDLKIISPTTEDTATYFCARGYVEFDLWGPGTLVTVSS
VL: DPVLTQTPPSVSAAVGGTVTINCQSSQSLYSNNYLSWYQQKPGQPPKVLIWPASSLASGVPSRFKGSGSGTQFTLTISELQSDDAATYYCQGTFYDSGWLSTFGGGTEVVVK
notes: V regions on human Ig constant parts; also called AB27_47
Regarding B7, in test [1], the “IL-8, cross-linked” value was determined as 1.47 abs. corr and the “IL-8 [abs. corr.]” value turned out to be 0.463 abs. corr. In addition, the “ELISA [abs. corr.]” value in test [2] was 3.37 abs. corr. Moreover, the “Cellular binding assay [RFU]” value in test [3] was 397 RFU.

B8: P018.S.01.A.G04 (antibody, V domains shown)
VH: QEQLVESGGGLVQPEGSLTLTCTASGVSFSNNYYISWVRQAPGKGLEWIACVYTGDDDYTYYPSWAKGRFTISKTSSTTVTLQMTSLTAADTATYFCAREILYPADTDSFDLWGPGTLVTVSS
VL: AFELTQTPSSVEAAVGGTVTIKCQASESISSRLAWYQQKPGQPPKLLIYRASTLASGVPSRFKGSGSGTDFTLTISDLESADAATYYCQAYVGISSGGYIFGGGTEVVVK
notes: V regions on human Ig constant parts; also called AB27_23
Regarding B8, in test [1], the “IL-8, cross-linked” value was determined as 1.15 abs. corr and the “IL-8 [abs. corr.]” value stood at 0.273 abs. corr. Further, the “ELISA [abs. corr.]” value in test [2] turned out to be 3.77 abs. corr. Also, the “Cellular binding assay [RFU]” value in test [3] worked out at 388 RFU.

B9: P018.S.09.A.D02 (antibody, V domains shown)
VH: QSLEESGGRLVTPGTPLTLTCTASGFSLSKYDMGWFRQAPGKGLEWIGMIGASDRTYYASWVKGRFTISKTSTTVDLRITSPTTEDTATYFCAREYPDARGYYYNLWGPGTPVTVSS
VL: ALVMTQTPASVEAAVGGTVTINCQASQSISDLLAWYQQKPGQPPKLLIYDASDLASGVPSRFSGSGSGTEFTLTISGVQSDDAATYYCQQGYSITNVDNVFGGGTEVVVK
notes: V regions on human Ig constant parts; also called AB27_150
With B9, in test [1], the “IL-8, cross-linked” value is 1.75 abs. corr and the “IL-8 [abs. corr.]” value turned out to be 1.01 abs. corr. The “ELISA [abs. corr.]” value in test [2] turned out to be 3.37 abs. corr. For the same molecule, the “Cellular binding assay [RFU]” value in test [3] amounted to 337 RFU.

B10: P018.S.01.A.D02 (antibody, V domains shown)
VH: QSLEESGGRLVTPGTPLTLTCTASGFSLSKYDMGWFRQAPGKGLEWIGMIGASDSTYYASWVKGRFTISKTSTTVDLRITSPTTEDTATYFCAREYPDARGYYYNLWGPGTPVTVSS
VL: ALVMTQTPASVEAAVGGTVTINCQASQSISDLLAWYQQKPGQPPKPLIYDASDLASGVPSRFKGSGSGTQFTLTISGVQSDDAATYYCQQGYSITNVDNVFGGGTEVVVK
notes: V regions on human Ig constant parts; also called AB27_11
For the molecule B10, in test [1], the “IL-8, cross-linked” value amounted to 1.67 abs. corr and the “IL-8 [abs. corr.]” value was 0.675 abs. corr. In addition, the “ELISA [abs. corr.]” value in test [2] was found to be 3.26 abs. corr. Also, in test [3], the “Cellular binding assay [RFU]” value turned out to be 323 RFU.

B11: P018.S.07.A.B04 (antibody, V domains shown)
VH: QSVEESGGRLVTPGTPLTLTCTVSGFSLSSYDMIWVRQAPGKGLEWIGIIYLTDTTYYANWTKGRFTISKTSTTVDLKISSPTTEDTATYFCARHLDTSSGGFYFNLWGQGTLVTVSS
VL: AQVLTQTPSSVSAAVGGTVTINCQASQSVYNSKILAWYQQKPGRPPKLLIYDASTLASGVPSRFKGSGSGTQFTLTISGVQSDDAATYFCQGEFTCTSADCIAFGGGTEVVVK
notes: V regions on human Ig constant parts; also called AB27_116
For the molecule B11, in test [1], the “IL-8, cross-linked” value is 1.67 abs. corr and the “IL-8 [abs. corr.]” value worked out at 0.304 abs. corr. Further, the “ELISA [abs. corr.]” value in test [2] is 3.63 abs. corr. Also, the “Cellular binding assay [RFU]” value in test [3] was found to be 382 RFU.

B12: P018.S.06.A.B03 (antibody, V domains shown)
VH: QSVEESGGRLVTPGTPLTLTCTVSGFSLSSYDMIWVRQAPGKGLEWIGIIYLTDTTYYANWAKGRFTISKTSTTVDLKISSPTTEDTATYFCARHLDTSSGGFYFNLWGQGTLVTVSS
VL: AQVLTQTPSSVSAAVGGTVTINCQASQSVYNSKILAWYQQKPGRPPKLLIYDASTLASGVPSRFKGSGSGTQFTLTISGVQSDDAATYFCQGEFTCTSADCIAFGGGTEVVVK
notes: V regions on human Ig constant parts; also called AB27_99
In the case of B12, in test [1], the “IL-8, cross-linked” value came out at 1.22 abs. corr and the “IL-8 [abs. corr.]” value was found to be 0.566 abs. corr. Moreover, the “ELISA [abs. corr.]” value in test [2] was 3.59 abs. corr. Moreover, the “Cellular binding assay [RFU]” value in test [3] was 424 RFU.

B13: P018.S.08.A.D02 (antibody, V domains shown)
VH: QSVEESGGRLVTPGTPLTLTCTVSGFSLSHYHILWVRQAPGEGLKYIGITLNNGRIDYATWAKGRFTISKTSTTVDLEITSPTTEDTATYFCAKYFVSESYDLWGQGTLVTVSS
VL: TAVLTQTPSPVSAAVGSTVTINCQASQSVYNDNWLSWYQQKPGQPPKLLIYGASTLASGVPSRFKGSGSGTQFTLTISDVQSGDAATYYCLGGYKDNSDNVFGGGTEVVVK
notes: V regions on human Ig constant parts; also called AB27_138
Turning to B13, in test [1], the “IL-8, cross-linked” value is 1.67 abs. corr and the “IL-8 [abs. corr.]” value came to 0.534 abs. corr. Moreover, in test [2], the “ELISA [abs. corr.]” value was found to be 3.37 abs. corr. Besides, in test [3], the “Cellular binding assay [RFU]” value was 407 RFU.

B14: P018.S.05.A.D04 (antibody, V domains shown)
VH: QSLEESGGDLVKPGASLTLTCTASEFDFNNNAMCWVRQAPGKGLEWIACIYIGNGGTWYASWAKGRFTISKSSSTTVTLQVTSLTAADTATYFCARGENIAYFILWGPGTLVTVSS
VL: DIVMTQTPASVSAAVGGTVTIKCQASQSINSWLSWYQQKPGQPPKLLIYKASTLASGVPSRFKGSGSGTEFTLTISDLESADAATYYCQGYYYYSSSNYASNAFGGGTEVVVK
notes: V regions on human Ig constant parts; also called AB27_87
In the case of B14, in test [1], the “IL-8, cross-linked” value is 1.53 abs. corr and the “IL-8 [abs. corr.]” value worked out at 0.246 abs. corr. In addition, in test [2], the “ELISA [abs. corr.]” value was found to be 3.37 abs. corr. For the same molecule, in test [3], the “Cellular binding assay [RFU]” value stood at 317 RFU.

Values taken from US20210253725A1 (BIONTECH, published 2021).
